How the values were obtained:
Experiment in all cases: co-IP; mCherry-Rac1 transiently expressed in HEK293T for 16 h, precipitated with the RFP-TRAP kit (Chromotek); endogenous RhoGDI by Western blot, quantified (n = 3)
mCherry-Rac1 Y64F = mCherry-Rac1 Y64F (UniProt P63000)
mCherry-Rac1 F28L = mCherry-Rac1 F28L (UniProt P63000)
mCherry-Rac1 P29S = mCherry-Rac1 P29S (UniProt P63000)
mCherry-Rac1 G12V = mCherry-Rac1 G12V (UniProt P63000)

reduction of co-precipitated GDI against Rac1 WT (mCherry-Rac1 Y64F): 50%
reduction of co-precipitated GDI against Rac1 WT (mCherry-Rac1 F28L): 50%
reduction of co-precipitated GDI against Rac1 WT (mCherry-Rac1 P29S): 50%
reduction of co-precipitated GDI against Rac1 WT (mCherry-Rac1 G12V): 50%
Substance: RhoGDI (endogenous, HEK293T) (from UniProt P52565 1-204) (natural protein)
